# Assay results published in patent publication US20250333496A1 (Novo Nordisk, published 2025).
# What was measured:
# [1] = biological target: T1, human IL-6 (mature hIL-6) (human, UniProt P05231 30-212); test: cell-based or functional assay
# [2] = biological target: T1, human IL-6 (mature hIL-6); test: SPR (format not stated)
# [3] = biological target: T1, human IL-6 (mature hIL-6); test: cell-based or functional assay; remark: listed apart in the source
# [4] = biological target: T2, recombinant human HPC4-tagged IL-6 (human, UniProt P05231 30-212); test: SPR, HPC4-IL-6 captured on anti-HPC4 antibody, VHH injected, 25 C, 1:1 model
# T2 construct: captured on an anti-HPC4 antibody in SPR; also called HPC4-human IL6
# T2 sequence (P05231 other isoform, or with tags, fused parts or gaps limits assumed): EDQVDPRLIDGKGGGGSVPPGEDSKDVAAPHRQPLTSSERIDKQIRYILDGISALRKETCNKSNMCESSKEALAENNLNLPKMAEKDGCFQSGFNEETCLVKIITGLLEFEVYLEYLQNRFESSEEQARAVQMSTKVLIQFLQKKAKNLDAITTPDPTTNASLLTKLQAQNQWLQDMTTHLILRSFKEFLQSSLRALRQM
# Procedure: Binding of purified anti-IL-6 VHHs to recombinant human HPC4-tagged IL-6 (SEQ ID NO: 98) was probed by Surface Plasmon Resonance (SPR).
# IL-6 was captured at a flow rate of 10 μL/min for 30 seconds.
# Subsequently, concentration series of VHH polypeptides according to Table 33 were injected at a flow rate of 50 μL/min for 200 seconds to allow for binding to […] followed by 600 seconds running buffer (10 mM HEPES, 150 mM NaCl, 5 mM CaCl₂, 0.05% (v/v) Surfactant P20, 1 mg/mL bovine serum albumin, pH 7.4) injection allowing dissociation from IL-6. The running buffer was also used for dilution of anti-IL-6 VHHs and IL-6. Regeneration of the chip was achieved using a regeneration buffer consisting of 50 mM EDTA in running buffer without CaCl₂, 30 seconds contact time, and a 30 μL/min flow rate applied twice to the surface. The binding data were collected at 25° C. at either a Biacore instrument (Cytiva AB, Uppsala) or a Bruker SPR32 (Bruker Daltonics). Data were analysed according to a 1:1 model using either BiaEvaluation or Biacore Insight Evaluation (Cytiva AB, Uppsala) or Bruker Analyser (Bruker Daltonics).
# [5] = biological target: T1, human IL-6 (mature hIL-6); test: cell-based or functional assay; remark: listed apart in the source
# [6] = biological target: T1, human IL-6 (mature hIL-6); test: cell-based or functional assay; remark: listed apart in the source
# T1 sequence (P05231 30-212): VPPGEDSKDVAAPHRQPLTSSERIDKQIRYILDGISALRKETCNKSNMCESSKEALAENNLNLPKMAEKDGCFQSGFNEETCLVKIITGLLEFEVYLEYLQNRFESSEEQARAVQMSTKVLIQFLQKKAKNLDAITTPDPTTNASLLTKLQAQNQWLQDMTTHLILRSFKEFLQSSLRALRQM
Reporter gene-assay [pM] [1],Kd [2],Binder,further results
98.2 pM,70.1 pM,"Polypeptide_11 (VHH, VHH_2.11 with C-terminal His tag extension E1; also called [VHH_2.11]-E1) VHH: EVQLVESGGGLVQAGGSLRLSCTASGRSFSSYAMGWFRQAPGKEREFVADIGVNPDNTWYADSAKGRFTISRDNAKNTMYLQMNSLKPEDTAVYYCAADSYGVGGGAERYYDSWGQGTQVTVSS",
43.6 pM,~13.6 pM,"Polypeptide_34 (VHH, VHH_1.8 with C-terminal His tag extension E1; also called [VHH_1.8]-E1) VHH: EVQLVESGGGLVQAGGSLRLSCTASGGTFSEYAMAWFRQAPGKEREFVTDIGESGGTWYADSVKGRFTISRDNAKNTVYLQMNSLRPEDTAVYYCAADSYGVGGGAERYYDSWGQGTQVTVSS","IC 50 (nM), reporter gene assay, 0% HSA [3]: 0.066 nM; IC 50 (nM), reporter gene assay, 1% HSA [3]: 0.046 nM; Kd [4]: 13.6 pM; kon [4]: 2.88e+07 M⁻¹ s⁻¹"
24.6 pM,1 pM,"Polypeptide_35 (VHH, VHH_1.10 with C-terminal His tag extension E1; also called [VHH_1.10]-E1) VHH: QVQLVESGGGLVQAGGSLRLSCTASGGTFGEYAMAWFRQAPGKEREFVTDIGESGGTWYADSVKGRFTISRDNAKNTVYLQMNSLRPEDTAVYYCAADSYGVGGGAERYYDSWGQGTQVTVSS",
16.8 pM,1 pM,"Polypeptide_15 (VHH, VHH_2.15 with C-terminal His tag extension E1; also called [VHH_2.15]-E1) VHH: QVQLQESGGGLVQAGGSLRLSCTASGGTFSEYAMAWFRQAPGKEREFVTDIGESGGTWYADSVKGRFTISRDNAKNTVYLQMNSLRPEDTAVYYCAADSYGVGGGAERYYDSWGQGTQVTVSS",
36.8 pM,816 pM,"Polypeptide_8 (VHH, VHH_2.8 with C-terminal His tag extension E1; also called [VHH_2.8]-E1) VHH: QVQLVESGGGLVQPGGSLRLSCAASGFTFSSYWMYWVRQAPGKGLEWVSGINTGGSTPDYADSVKGRFTISRDNAKNTLYLQMNSLRPEDTAVYYCAADTPRSFRLNHYSPLGQGTQVTVSS",
18.5 pM,705 pM,"Polypeptide_18 (VHH, VHH_1.16 with C-terminal His tag extension E1; also called [VHH_1.16]-E1) VHH: EVQLVESGGGLVQPGGSLRLSCAASGFTFSNYWMYWVRQAPGKGLEWVSGINTGGSTPDYADSVKGRFAISRDNAKNTLYLQMNSLRPEDTAVYYCAADTPRVFRLDHYSPLGQGTQVTVSS","IC 50 (nM), reporter gene assay, 0% HSA [3]: 0.02 nM; IC 50 (nM), reporter gene assay, 1% HSA [3]: 0.02 nM"
23.2 pM,696 pM,"Polypeptide_5 (VHH, VHH_2.5 with C-terminal His tag extension E1; also called [VHH_2.5]-E1) VHH: QLQLVESGGGLVQPGGSLRLSCAASGFTFSNYWMYWVRQAPGKGLEWVSGINTGGSTPDYADSVKGRFTISRDNAKNTLYLQMNSLRPEDTAVYYCAADTPRVFRLDHYSPLGQGTQVTVSS",
33.7 pM,903 pM,"Polypeptide_9 (VHH, VHH_2.9 with C-terminal His tag extension E1; also called [VHH_2.9]-E1) VHH: QVQLVESGGGLVQPGGSLRLSCAASGFTFSNYWMYWVRQAPGKGLEWVSGIDTRGSTPDYADSVKGRFTISRDNAKSTFYLQMNSLRPEDTAVYYCATDTPRSFRLYHYVPLGQGTQVTVSS",
20.7 pM,1310 pM,"Polypeptide_2 (VHH, VHH_2.2 with C-terminal His tag extension E1; also called [VHH_2.2]-E1) VHH: EVQLVESGGGLVQPGGSLRLSCAASGFTFSNYWMYWVRQAPGKGLEWVSGINTGGSTPDYADSVKDRFTISRDNAKNTLYLQMNSLRPADTAVYYCAADTPRSFRLNHYAPLGQGTQVTVSS",
114 pM,1030 pM,"Polypeptide_10 (VHH, VHH_2.10 with C-terminal His tag extension E1; also called [VHH_2.10]-E1) VHH: QVQLQESGGGLVQAGGSLRLSCTVSGRTFSTYAMGWFRQAPGKEREFVADINWNSDNIWYADSVKGRFTISRDNAKNVMYLQMNSLKPEDTAVYYCAADSYGVGGGKEEYYDSWGQGTQVTVSS",
80.9 pM,1 pM,"Polypeptide_13 (VHH, VHH_2.13 with C-terminal His tag extension E1; also called [VHH_2.13]-E1) VHH: EVQLVESGGGLVQAGGPLRLSCTVSGRTFSTYAMGWFRQAPGKEREFVADINWNSDNIWYADSVKGRFTISRDNAKNVMYLQMNSLKPEDTAVYYCAADSYGVGGGKEEYYDSWGQGTQVTVSS",
84.1 pM,257 pM,"Polypeptide_17 (VHH, VHH_2.17 with C-terminal His tag extension E1; also called [VHH_2.17]-E1) VHH: QVQLVESGGGLVQAGGSLRLSCTVSGRTFSTYAMGWFRQAPGKEREFVADINWNSDNIWYADSVKGRFTISRDNAKNVMYLQMNSLKPEDTAVYYCAADSYGVGGGKEEYYDSWGQGTQVTVSS",
198 pM,1460 pM,"Polypeptide_4 (VHH, VHH_2.4 with C-terminal His tag extension E1; also called [VHH_2.4]-E1) VHH: QVQLQESGGGLVQAGGSLRLSCTVSGRTFSTYAMGWFRQAPGKEREFVADINWNSDNLWYADSVKGRFTISRDNAKNTMYLQMNSLKPEDTAVYYCAVDSYGVGGGKPEYYDSWGQGTQVTVSS",
,,"Compound 14 (VHH, Chem. 24 (C16 fatty acid substituent) on Cys in position 4 of the extension (SEQ ID NO: 161)) VHH: EVQLVESGGGLVQPGGSLKLSCTTSGRRFSEYAVGWFRQAPGKEREFVADIGEQAENTWYAESVLGRFTISRDDAKNTVYLEMDGLKPEDTAVYYCAADKYGVGGNAQGYYDSWGQGTQVTVSS","IC50 (nM) mean, STAT3-luc reporter gene assay [5]: 0.041 nM; Relative IC50 to Polypeptide_29 [5]: 1.1 fold"
,,"Compound 15 (VHH, Chem. 26 (C18 fatty acid substituent) on Cys in position 4 of the extension (SEQ ID NO: 161)) VHH: EVQLVESGGGLVQPGGSLKLSCTTSGRRFSEYAVGWFRQAPGKEREFVADIGEQAENTWYAESVLGRFTISRDDAKNTVYLEMDGLKPEDTAVYYCAADKYGVGGNAQGYYDSWGQGTQVTVSS","IC50 (nM) mean, STAT3-luc reporter gene assay [5]: 0.046 nM; Relative IC50 to Polypeptide_29 [5]: 1.3 fold"
,,"Compound 17 (VHH, Chem. 24 (C16 fatty acid substituent) on Cys in position 4 and on Cys in position 6 of the extension (SEQ ID NO: 162)) VHH: EVQLVESGGGLVQPGGSLKLSCTTSGRRFSEYAVGWFRQAPGKEREFVADIGEQAENTWYAESVLGRFTISRDDAKNTVYLEMDGLKPEDTAVYYCAADKYGVGGNAQGYYDSWGQGTQVTVSS","IC50 (nM) mean, STAT3-luc reporter gene assay [5]: 0.04 nM; Relative IC50 to Polypeptide_29 [5]: 1 fold"
,,"Compound 16 (VHH, Chem. 27 (C20 fatty acid substituent) on Cys in position 4 of the extension (SEQ ID NO: 161)) VHH: EVQLVESGGGLVQPGGSLKLSCTTSGRRFSEYAVGWFRQAPGKEREFVADIGEQAENTWYAESVLGRFTISRDDAKNTVYLEMDGLKPEDTAVYYCAADKYGVGGNAQGYYDSWGQGTQVTVSS","IC50 (nM) mean, STAT3-luc reporter gene assay [5]: 0.054 nM; Relative IC50 to Polypeptide_29 [5]: 1.6 fold"
47.4 pM,627 pM,"Polypeptide_1 (VHH, VHH_2.1 with C-terminal His tag extension E1; also called [VHH_2.1]-E1) VHH: QVQLVESGGDLVQPGGSLRLSCTTSGRTFSSYAMGWFRQAPGKEREFVADIGENADNRWYAHSVKGRFTISRDNAKNTVYLQMNSLKPEDTAVYYCAADRYGVGGGAQGYYDSWGQGTQVTVSS",
40.6 pM,1 pM,"Polypeptide_19 (VHH, VHH_1.11 with C-terminal His tag extension E1; also called [VHH_1.11]-E1) VHH: QLQLVESGGGWVQPGGSLKLSCTTSGRTFSSYAVGWFRQAPGKEREFVADIGENADNTWYAHSVKGRFTISRDNAKNTVYLQMNSLKPEDTAVYYCAADSYGVGGGAQGYYDSWGQGTQVTVSS","IC 50 (nM), reporter gene assay, 0% HSA [3]: 0.117 nM; IC 50 (nM), reporter gene assay, 1% HSA [3]: 0.064 nM; IC50 (nM), STAT3-luc reporter gene assay [6]: 0.185 nM; Relative IC50 to Reference Polypeptide_29 [6]: 5.4 fold"
62.1 pM,358 pM,"Polypeptide_33 (VHH, VHH_1.9 with C-terminal His tag extension E1; also called [VHH_1.9]-E1) VHH: EVQLVESGGGLVQPGGSLRLSCTTSGRTFSSYAVGWFRQAPGKEREFVADIGENADNTWYAHSVKGRFTISRDNAKNTVYLQMNSLKPEDTAVYYCAADSYGVGGGAQGYYDSWGQGTQVTVSS",
72.9 pM,396 pM,"Polypeptide_14 (VHH, VHH_2.14 with C-terminal His tag extension E1; also called [VHH_2.14]-E1) VHH: QLQLVESGGGSVQVGDSLRLSCTFSGRSFSSYAMGWFRQAPGKEREFVADIGENADNTWYAHSVKGRFTISRDNAKNTVYLQMNSLKPEDTAVYYCAADSYGVGGGAQGYYDSWGQGTQVTVSS",
52.4 pM,1 pM,"Polypeptide_16 (VHH, VHH_2.16 with C-terminal His tag extension E1; also called [VHH_2.16]-E1) VHH: EVQLVESGGGLVQPGGSLSLSCTASGRTFSSYAMGWFRQAPGKEREFVADIGENADNRWYAHSVKGRFTISRDNAKNTVYLQMNSLKPEDTAVYYCAADRYGVGGGAQGYYDSWGQGTQVTVSS",
42.1 pM,631 pM,"Polypeptide_7 (VHH, VHH_2.7 with C-terminal His tag extension E1; also called [VHH_2.7]-E1) VHH: EVQLVESGGRWVQPGASLRLSCTTSGRTFSSYAMGWFRQAPGKEREFVADIGENADNRWYAHSVKGRFTISRDNAKNTVYLQMNSLKPEDTAVYYCAADRYGVGGGAQGYYDSWGQGTQVTVSS",
77.4 pM,1 pM,"Polypeptide_12 (VHH, VHH_2.12 with C-terminal His tag extension E1; also called [VHH_2.12]-E1) VHH: QVQLVESGGGLVQAGGSLRLSCTTSGRTFSSYAMAWFRQAPGKDREFVADIGENSDNIWYADSVKGRFTISRDNAKNTILLQMNSLKPEDTAVYYCAADSYGVGGGKPEYYDSWGQGAQVTVSS",
73.4 pM,1520 pM,"Polypeptide_6 (VHH, VHH_2.6 with C-terminal His tag extension E1; also called [VHH_2.6]-E1) VHH: QVQLQESGGGLVQAGGSLRLSCTTSGRTFSDYAMAWFRQAPGKDREFVADIGTNSENTWYAESVKGRFTISRDNTKNTIYLQMNSLKPEDTAVYYCAADSYGVGGGKQEYYDSWGQGAQVTVSS",
